Data as given in PMC3714218 (Current biology : CB, 2013).
Read-outs that look alike come from different tables or passages of the source.

Assays:
yeast Arp2/3 complex [1] = biological target: T1, yeast Arp2/3 complex (yeast, UniProt P32381 1-391; P47117 1-449; P38328 1-384; P53731 1-342; Q05933 1-178; P33204 …); experiment: AUC
yeast Arp2/3 complex [2] = biological target: T1, yeast Arp2/3 complex; experiment: fluorescence polarisation
yeast Arp2/3 complex [3] = biological target: T1, yeast Arp2/3 complex; experiment: fluorescence polarisation; remark: listed apart in the source
[4] = biological target: Arp3 (subunit of yeast Arp2/3 complex) (yeast, UniProt P47117 1-449); experiment: cross-linking
[5] = biological target: ArpC1/Arc40 (subunit of yeast Arp2/3 complex) (yeast, UniProt P38328 1-384); experiment: cross-linking
Sequence of ArpC1/Arc40 (subunit of yeast Arp2/3 complex) (P38328 whole entry, one chain of several): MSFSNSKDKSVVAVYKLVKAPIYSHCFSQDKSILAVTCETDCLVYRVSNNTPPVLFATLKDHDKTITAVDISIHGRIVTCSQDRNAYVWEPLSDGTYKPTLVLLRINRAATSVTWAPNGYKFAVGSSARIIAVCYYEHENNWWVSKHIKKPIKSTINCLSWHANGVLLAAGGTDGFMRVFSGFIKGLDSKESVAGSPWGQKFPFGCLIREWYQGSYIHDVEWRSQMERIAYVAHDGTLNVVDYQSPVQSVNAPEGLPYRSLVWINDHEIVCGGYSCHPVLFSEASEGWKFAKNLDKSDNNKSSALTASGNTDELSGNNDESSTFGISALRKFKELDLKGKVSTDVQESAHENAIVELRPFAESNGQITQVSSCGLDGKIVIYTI

Sequence of Arp3 (subunit of yeast Arp2/3 complex) (P47117 whole entry, one chain of several): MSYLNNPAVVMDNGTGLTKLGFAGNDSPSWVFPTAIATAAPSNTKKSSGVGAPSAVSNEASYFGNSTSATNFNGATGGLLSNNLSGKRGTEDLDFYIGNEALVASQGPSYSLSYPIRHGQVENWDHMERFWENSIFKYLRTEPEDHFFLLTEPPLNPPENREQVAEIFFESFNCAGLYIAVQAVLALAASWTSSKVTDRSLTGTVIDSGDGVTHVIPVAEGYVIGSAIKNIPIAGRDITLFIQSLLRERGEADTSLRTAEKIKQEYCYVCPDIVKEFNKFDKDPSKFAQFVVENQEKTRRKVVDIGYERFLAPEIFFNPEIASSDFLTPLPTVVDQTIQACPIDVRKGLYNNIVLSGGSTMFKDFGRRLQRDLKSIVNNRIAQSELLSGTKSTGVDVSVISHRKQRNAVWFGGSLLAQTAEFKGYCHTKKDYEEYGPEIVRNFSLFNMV

Binder | KD of the first binding site (yeast Arp2/3 complex [1]) [nM] | KD of the second binding site (yeast Arp2/3 complex [1]) [nM] | stoichiometry N (yeast Arp2/3 complex [1]) | Kd (yeast Arp2/3 complex [2]) [nM] | Kd (yeast Arp2/3 complex [3]) [nM] | binding result [4] | binding result [5]
Gmf1-GFP (natural protein, S. cerevisiae, UniProt Q12156 1-149, looked up) MSNLYKIGTETRNKIKKFRTSTARTDSIKALSIKIEPKPSYEIIVDEDEQEELDEIEDLSELAEILPDNSPRFVLTAYPTTTKDGFKQTPLVLVYWKPMTVVSQEWKMLYAGALEMIREECGTFKLIEVSSGLEDDSDVEELREQLENC | < 30 | ~2000 | ~2 Gmf1-GFP per Arp2/3 complex | 13 ± 2 |  |  | 
wild-type Gmf1 (untagged) (natural protein, S. cerevisiae, UniProt Q12156 1-149, looked up) MSNLYKIGTETRNKIKKFRTSTARTDSIKALSIKIEPKPSYEIIVDEDEQEELDEIEDLSELAEILPDNSPRFVLTAYPTTTKDGFKQTPLVLVYWKPMTVVSQEWKMLYAGALEMIREECGTFKLIEVSSGLEDDSDVEELREQLENC |  |  |  |  | 10 ± 3 | binds | binds
